This is an account of results in US20180111972A1 (Stanford University, published 2018).

Where two headings read alike, the source gives them in different places.

The labels stand for the following.
B3: PDGFRβ-His (residues 1-314 of PDGFR-β with C-terminal hexahistidine tag) (receptor)
chain: LVVTPPGPELVLNVSSTFVLTCSGSAPVVWERMSQEPPQEMAKAQDGTFSSVLTLTNLTGLDTGEYFCTHNDSRGLETDERKRLYIFVPDPTVGFLPNDAEELFIFLTEITEITIPCRVTDPQLVVTLHEKKGDVALPVPYDHQRGFSGIFEDRSYICKTTIGDREVDSDAYYVYRLQVSSINVSVNAVQTVVRQGENITLMCIVIGNEVVNFEWTYPRKESGRLVEPVTDFLLDMPYHIRSILHIPSAELEDSGTYTCNVTESVNDHQDEKAINITVVESGHHHHHH
notes: range 1-314; Monovalent form, expressed in FreeStyle 293-F cells; also called PDGRβ-His; PDGFR-His

In assay [1] the target is B3. As to the kind of experiment: KinExA Kinetics Injection; could not be accurately determined because of the fast equilibrium time. In general terms: In KinExA the mixture passes briefly over coated beads that capture the unbound partner.
Assay [2] has as its target B3. Briefly: KinExA, equilibrium titration in solution, n-curve analysis. How it is done: (§1) For KinExA measurements, a constant amount of PDGF/VEGF ligand is titrated with differing concentrations of PDGRβ-His or VEGFR2-His. The solutions are incubated for an appropriate amount of time to allow the ligand-receptor binding reaction to reach equilibrium. The solution is then briefly exposed to a solid support containing immobilized PDGFR or VEGFR, which captures unbound ligand. The amount of ligand bound to the solid support is then detected using a fluorescently-labeled antibody. […] For each binding interaction measured, curves for two concentrations of the constant ligand are performed. By performing two experiments with fixed ligand concentrations above and below the Kd, and fitting both sets of data with a nonlinear regression analysis, a more accurate measurement for the affinity can be obtained.
(§2) Kinetic Exclusion Assay (KinExA). All experiments were performed on a KinExA 3200 instrument with siliconized flow cell (Sapidyne Instruments Inc). […] 30 μg of receptor was incubated in 1 ml of 50 mM sodium bicarbonate, 0.5 M sodium citrate buffer, pH 8.3, for 2 hr at room temperature with rocking. Beads were allowed to settle by gravity and liquid removed. Beads were blocked by incubating in 1 ml of 10 mg/ml BSA in 1 M Tris buffer, pH 8.0, for 1 hr at room temperature with rocking, and stored in blocking buffer at 4° C. for up to one week until use. Running buffer contained PBS with 10 mM imidazole and 0.02% sodium azide. Samples were prepared in running buffer with 1 mg/ml BSA. Binding reactions were prepared with a fixed concentration of PDGF/VEGF ligands and dilution series of PDGFR or VEGFR. Captured PDGF/VEGF ligands were detected using a Dylight 649-conjugated anti-FLAG antibody (Rockland) at 1:1000 dilution in sample buffer. Kinetic experiments were performed with the “Kinetics Injection” method defined in the KinExA software. Data were analyzed with KinExA Pro Software.

For assay [3], the target named is B3. Briefly: KinExA; calculated, could not be accurately determined because of the fast equilibrium time.
Assay [4] concerns the target PDGFRβ on DiscoveRx PathHunter U2OS PDGFRβ reporter cells (UniProt P09619 33-1106, limits assumed). As to the kind of experiment: cell-based or functional assay.
For assay [5], the target named is T1, human VEGFR on human umbilical vein endothelial cells (HUVECs) (human, UniProt P35968 20-1356).
T1 construct: The phosphorylation blots on these cells detect VEGFR2
As to the kind of experiment: flow cytometry on HUVECs, soluble ligand titrated 3 h at 4 C, anti-FLAG-PE. How it is done: (§3) To test binding to VEGFR, human umbilical vein endothelial cells (HUVECs) and murine angiosarcoma endothelial cells (SVR) were used.
(§4) Cell-binding assay. Varying concentrations of scPDGF, scVEGF, and PDGF/VEGF ligands were incubated with 25,000 PDGFR- or VEGFR-expressing cells in binding buffer (20 mM Tris pH 7.5 with 1 mM MgCl₂, 1 mM MnCl₂, 2 mM CaCl₂, 100 mM NaCl, and 1 mg/ml BSA) for 5 hr (BJ-5ta, NIH/3T3) or 3 hr (HUVEC, SVR) at 4° C. Cells were washed and pelleted, then incubated with 1:100 R-PE-conjugated anti-FLAG antibody (Prozyme) for 15 min on ice. Cells were washed, pelleted, and resuspended in binding buffer immediately before analysis by flow cytometry using BD Accuri C6. Flow cytometry data were analyzed using BD Accuri C6 software, and statistical analysis was performed using GraphPad Prism 6.
On the technique in general: Flow cytometry measures light scatter and fluorescence of single cells or particles in a stream.

Assay [6] concerns the target T1, human VEGFR on human umbilical vein …. Briefly: flow cytometry titration of the soluble FLAG-tagged protein on HUVECs, anti-FLAG detection. How it is done: as §3, §4
Assay [7] has the same target. As to the kind of experiment: flow cytometry on HUVECs, soluble ligand titrated 3 h at 4 C, anti-FLAG-PE. This is another data set of the same source.
For assay [8], the target named is T2, mouse VEGFR on SVR murine angiosarcoma endothelial cells (mouse).
T2 construct: whole, on cells
Briefly: flow cytometry on SVR cells, soluble ligand titrated 3 h at 4 C, anti-FLAG-PE. How it is done: as §3, §4

The next assay has as its target T3, scPDGF, yeast-displayed (human).
T3 chain: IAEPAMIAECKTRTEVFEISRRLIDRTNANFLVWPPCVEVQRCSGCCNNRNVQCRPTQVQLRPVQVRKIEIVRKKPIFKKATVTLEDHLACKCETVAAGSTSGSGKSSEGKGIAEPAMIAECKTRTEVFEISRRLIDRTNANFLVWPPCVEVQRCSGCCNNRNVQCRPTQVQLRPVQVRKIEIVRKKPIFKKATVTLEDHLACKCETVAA
As to the kind of experiment: yeast surface display of scPDGF, flow cytometry titration of PDGFRβ-His, anti-His detection. The procedure: Cells were incubated in large enough volumes to avoid ligand depletion and appropriate time to reach equilibrium. During the last hour of incubation, yeast were incubated with 1:250 dilution of chicken anti-c-Myc (Invitrogen) in PBSA. […] Yeast were washed, pelleted, and resuspended in PBSA immediately before analysis by flow cytometry using BD FACSCalibur or BD Accuri C6. Flow cytometry data were analyzed using FlowJo (v7.6.1 and v10, Treestar) or BD Accuri C6 software. Statistical analysis was performed using GraphPad Prism 6.
Bound protein was detected using fluorescently-labeled anti-His and anti-mouse-Fc antibodies.

The target in assay [9] is T4, VEGFR2-His (residues 1-764 of VEGFR2, Ig-like domains 1-7, with hexahistidine tag) (human, UniProt P35968 20-764).
T4 construct: range 1-764; Monomeric form, expressed in FreeStyle 293-F cells; also called VEGFR-His
As to the kind of experiment: KinExA. How it is done: as §1
(§5) Kinetic Exclusion Assay (KinExA). All experiments were performed on a KinExA 3200 instrument with siliconized flow cell (Sapidyne Instruments Inc). […] 30 μg of receptor was incubated in 1 ml of 50 mM sodium bicarbonate, 0.5 M sodium citrate buffer, pH 8.3, for 2 hr at room temperature with rocking. Beads were allowed to settle by gravity and liquid removed. […] Captured PDGF/VEGF ligands were detected using a Dylight 649-conjugated anti-FLAG antibody (Rockland) at 1:1000 dilution in sample buffer. […] Data were analyzed with KinExA Pro Software.

The target of assay [10] is B3. As to the kind of experiment: KinExA. The procedure:
as §1, §5

Assay [11] addresses T2, mouse VEGFR on SVR murine angiosarcoma …. As to the kind of experiment: flow cytometry on SVR cells. How it is done: as §3, §4
Assay [12] has as its target T4, VEGFR2-His (residues 1-764 of VEGFR2, …). Briefly: KinExA, equilibrium titration in solution, n-curve analysis. The procedure:
as §1, §2

The target of assay [13] is T1, human VEGFR on human umbilical vein …. As to the kind of experiment: flow cytometry on HUVECs. How it is done:
as §3, §4

Assay [14] has as its target T4, VEGFR2-His (residues 1-764 of VEGFR2, …). Briefly: KinExA, calculated from Kd and kon. How it is done: (§6) By performing two experiments with fixed ligand concentrations above and below the Kd, and fitting both sets of data with a nonlinear regression analysis, a more accurate measurement for the affinity can be obtained.
(§7) Additionally, the kinetic parameter kₒₙ can be determined by using a “kinetics injection” experiment. A constant concentration of PDGF/VEGF ligand is injected with an equal volume of differing concentrations of PDGRβ-His or VEGFR2-His. The two solutions are allowed to mix briefly (several seconds) in the time required for the instrument to deliver the mixture to the detection bead column. The pre-equilibrium concentrations of free ligand is fit to the standard bimolecular rate equation to obtain kₒₙ.
(§8) Kinetic Exclusion Assay (KinExA). All experiments were performed on a KinExA 3200 instrument with siliconized flow cell (Sapidyne Instruments Inc). […] 30 μg of receptor was incubated in 1 ml of 50 mM sodium bicarbonate, 0.5 M sodium citrate buffer, pH 8.3, for 2 hr at room temperature with rocking. Beads were allowed to settle by gravity and liquid removed. Beads were blocked by incubating in 1 ml of 10 mg/ml BSA in 1 M Tris buffer, pH 8.0, for 1 hr at room temperature with rocking, and stored in blocking buffer at 4° C. for up to one week until use. Running buffer contained PBS with 10 mM imidazole and 0.02% sodium azide. Samples were prepared in running buffer with 1 mg/ml BSA. Binding reactions were prepared with a fixed concentration of PDGF/VEGF ligands and dilution series of PDGFR or VEGFR. Captured PDGF/VEGF ligands were detected using a Dylight 649-conjugated anti-FLAG antibody (Rockland) at 1:1000 dilution in sample buffer. Kinetic experiments were performed with the “Kinetics Injection” method defined in the KinExA software. Data were analyzed with KinExA Pro Software. The Kd was determined from a global fit of two concentration curves using the “n-curve analysis” tool and the titrant concentrations as reference. […] The kₒₙ was calculated as a fit of the pre-equilibrium free ligand concentrations to the bimolecular binding equation using the “Kinetics Injection” tool.

The target in assay [15] is B3. Briefly: KinExA, calculated from Kd and kon. How it is done: as §6, §7, §8
Assay [16] deals with T4, VEGFR2-His (residues 1-764 of VEGFR2, …). As to the kind of experiment: KinExA Kinetics Injection. The procedure:
as §7, §8

Assay [17] addresses B3. Briefly: KinExA Kinetics Injection. How it is done:
as §7, §8

In assay [18] the target is T2, mouse VEGFR on SVR murine angiosarcoma …. Briefly: flow cytometry titration of the soluble FLAG-tagged protein on SVR cells, anti-FLAG detection. How it is done: as §3, §4
Assay [19] addresses T1, human VEGFR on human umbilical vein …. As to the kind of experiment: cell-based or functional assay.

T1 sequence (P35968 20-1356 limits assumed): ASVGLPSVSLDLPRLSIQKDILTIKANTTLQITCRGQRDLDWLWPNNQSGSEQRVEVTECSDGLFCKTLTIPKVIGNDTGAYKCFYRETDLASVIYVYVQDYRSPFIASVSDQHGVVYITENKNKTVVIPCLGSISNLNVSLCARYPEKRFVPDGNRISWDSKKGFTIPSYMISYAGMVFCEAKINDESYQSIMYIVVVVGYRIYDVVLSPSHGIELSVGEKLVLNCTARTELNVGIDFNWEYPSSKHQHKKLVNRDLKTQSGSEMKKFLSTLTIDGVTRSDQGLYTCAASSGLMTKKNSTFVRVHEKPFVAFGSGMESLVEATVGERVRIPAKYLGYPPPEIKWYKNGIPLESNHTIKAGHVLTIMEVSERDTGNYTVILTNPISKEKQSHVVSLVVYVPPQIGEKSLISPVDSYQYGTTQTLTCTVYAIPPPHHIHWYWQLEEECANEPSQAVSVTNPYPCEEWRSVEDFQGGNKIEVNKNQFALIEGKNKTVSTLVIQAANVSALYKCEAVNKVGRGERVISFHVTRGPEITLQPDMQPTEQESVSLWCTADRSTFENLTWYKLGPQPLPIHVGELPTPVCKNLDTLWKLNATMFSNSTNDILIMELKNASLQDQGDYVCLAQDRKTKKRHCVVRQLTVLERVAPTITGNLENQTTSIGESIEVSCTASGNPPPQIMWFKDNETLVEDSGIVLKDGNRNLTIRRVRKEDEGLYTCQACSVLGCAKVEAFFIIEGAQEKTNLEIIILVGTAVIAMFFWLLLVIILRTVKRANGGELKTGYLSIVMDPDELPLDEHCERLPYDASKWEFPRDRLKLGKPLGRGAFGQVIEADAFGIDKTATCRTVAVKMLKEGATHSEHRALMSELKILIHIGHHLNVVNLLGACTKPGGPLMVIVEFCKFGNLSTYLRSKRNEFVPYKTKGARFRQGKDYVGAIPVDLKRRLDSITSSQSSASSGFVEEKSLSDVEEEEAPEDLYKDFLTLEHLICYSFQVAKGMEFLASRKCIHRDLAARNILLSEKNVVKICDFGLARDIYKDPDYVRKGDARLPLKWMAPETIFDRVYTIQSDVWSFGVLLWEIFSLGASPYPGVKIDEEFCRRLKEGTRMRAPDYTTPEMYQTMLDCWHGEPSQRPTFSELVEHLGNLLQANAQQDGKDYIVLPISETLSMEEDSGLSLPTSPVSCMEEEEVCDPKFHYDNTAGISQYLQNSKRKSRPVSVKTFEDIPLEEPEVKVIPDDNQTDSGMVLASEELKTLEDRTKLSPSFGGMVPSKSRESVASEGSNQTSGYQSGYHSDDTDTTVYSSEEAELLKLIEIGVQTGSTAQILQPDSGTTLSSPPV
T4 sequence (P35968 other isoform, or with tags, fused parts or gaps limits assumed, form in doubt): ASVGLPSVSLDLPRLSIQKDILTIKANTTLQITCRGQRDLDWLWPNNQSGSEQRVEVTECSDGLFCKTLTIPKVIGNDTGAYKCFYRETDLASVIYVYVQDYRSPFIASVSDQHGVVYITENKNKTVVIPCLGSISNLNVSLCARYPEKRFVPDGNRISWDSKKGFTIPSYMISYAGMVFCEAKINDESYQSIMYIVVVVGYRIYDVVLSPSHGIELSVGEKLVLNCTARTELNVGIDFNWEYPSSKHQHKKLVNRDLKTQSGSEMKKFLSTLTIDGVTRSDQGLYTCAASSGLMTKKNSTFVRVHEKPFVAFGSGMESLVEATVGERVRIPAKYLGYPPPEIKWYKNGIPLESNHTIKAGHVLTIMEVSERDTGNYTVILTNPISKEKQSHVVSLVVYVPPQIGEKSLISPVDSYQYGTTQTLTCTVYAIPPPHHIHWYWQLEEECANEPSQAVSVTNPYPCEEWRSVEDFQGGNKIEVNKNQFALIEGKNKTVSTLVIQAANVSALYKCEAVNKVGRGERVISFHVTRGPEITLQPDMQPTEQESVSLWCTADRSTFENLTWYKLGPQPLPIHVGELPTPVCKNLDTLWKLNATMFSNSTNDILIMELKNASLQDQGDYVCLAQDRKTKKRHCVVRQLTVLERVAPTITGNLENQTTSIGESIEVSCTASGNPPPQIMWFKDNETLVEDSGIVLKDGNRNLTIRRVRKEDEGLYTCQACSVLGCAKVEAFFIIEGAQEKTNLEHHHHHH
T2 sequence (P35918 20-1345): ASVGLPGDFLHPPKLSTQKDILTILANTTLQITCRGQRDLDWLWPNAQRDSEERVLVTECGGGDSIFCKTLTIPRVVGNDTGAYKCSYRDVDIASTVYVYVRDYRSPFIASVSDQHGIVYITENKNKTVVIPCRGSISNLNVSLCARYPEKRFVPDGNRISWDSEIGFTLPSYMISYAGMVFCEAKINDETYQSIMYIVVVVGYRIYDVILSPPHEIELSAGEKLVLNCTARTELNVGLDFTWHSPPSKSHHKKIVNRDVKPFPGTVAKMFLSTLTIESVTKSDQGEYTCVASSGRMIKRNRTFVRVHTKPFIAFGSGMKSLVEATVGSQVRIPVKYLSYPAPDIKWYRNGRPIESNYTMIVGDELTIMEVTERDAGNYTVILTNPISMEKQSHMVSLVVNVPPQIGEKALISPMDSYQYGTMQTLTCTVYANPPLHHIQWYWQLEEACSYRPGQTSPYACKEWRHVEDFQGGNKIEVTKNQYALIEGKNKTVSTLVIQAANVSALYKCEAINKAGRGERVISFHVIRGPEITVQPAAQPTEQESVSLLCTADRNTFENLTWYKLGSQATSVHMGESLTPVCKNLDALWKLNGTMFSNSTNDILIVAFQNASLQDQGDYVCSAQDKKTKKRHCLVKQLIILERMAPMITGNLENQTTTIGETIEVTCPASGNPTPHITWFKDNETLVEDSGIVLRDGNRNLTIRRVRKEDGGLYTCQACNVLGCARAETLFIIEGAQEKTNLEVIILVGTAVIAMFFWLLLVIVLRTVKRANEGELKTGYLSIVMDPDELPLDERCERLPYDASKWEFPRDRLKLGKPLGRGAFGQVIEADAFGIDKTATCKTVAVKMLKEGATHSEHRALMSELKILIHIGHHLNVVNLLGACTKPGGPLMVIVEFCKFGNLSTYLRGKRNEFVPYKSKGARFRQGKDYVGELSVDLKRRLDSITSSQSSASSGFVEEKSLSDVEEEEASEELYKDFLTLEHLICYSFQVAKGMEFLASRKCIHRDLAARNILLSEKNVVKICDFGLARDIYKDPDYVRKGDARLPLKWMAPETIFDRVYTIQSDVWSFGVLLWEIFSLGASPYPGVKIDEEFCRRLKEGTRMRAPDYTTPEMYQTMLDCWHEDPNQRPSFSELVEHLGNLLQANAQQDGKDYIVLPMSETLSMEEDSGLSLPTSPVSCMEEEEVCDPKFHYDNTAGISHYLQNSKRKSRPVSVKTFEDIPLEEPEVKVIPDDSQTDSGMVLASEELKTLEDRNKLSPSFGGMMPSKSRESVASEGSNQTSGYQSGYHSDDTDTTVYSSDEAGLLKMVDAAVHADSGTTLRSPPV

B1: scPDGF, single-chain version of wild-type PDGF-BB, soluble, FLAG and hexahistidine tags (ligand)
chain: IAEPAMIAECKTRTEVFEISRRLIDRTNANFLVWPPCVEVQRCSGCCNNRNVQCRPTQVQLRPVQVRKIEIVRKKPIFKKATVTLEDHLACKCETVAAGSTSGSGKSSEGKGIAEPAMIAECKTRTEVFEISRRLIDRTNANFLVWPPCVEVQRCSGCCNNRNVQCRPTQVQLRPVQVRKIEIVRKKPIFKKATVTLEDHLACKCETVAA
As a reminder, the kon is the second-order rate constant of association. By Kd is commonly meant the concentration at which binding is half-saturated. For orientation: koff means a measure of how fast the partners let go of each other. The molecule B1 showed a kon in assay [1] of over 1.7e+07 M⁻¹ s⁻¹. Further, the Kd in assay [2] turned out to be 18 nM. In addition, in [3], the koff is over 0.31 s⁻¹. Moreover, the “EC50 of receptor activation, DiscoveRx PathHunter PDGFR reporter cells, chemiluminescence” value in [4] came to 0.14 nM.

B2: scVEGFwt, single-chain version of VEGF-A, soluble, FLAG and hexahistidine tags (ligand)
chain: DYKDDDDKEVVKFMDVYQRSYCHPIETLVDIFQEYPDEIEYIFKPSCVPLMRCGGCCNDEGLECVPTEESNITMQIMRIKPHQGQHIGEMSFLQHNKCECRPKKDGSTSGSGKSSEGKGEVVKFMDVYQRSYCHPIETLVDIFQEYPDEIEYIFKPSCVPLMRCGGCCNDEGLECVPTEESNITMQIMRIKPHQGQHIGEMSFLQHNKCECRPKKDHHHHHH
notes: Expressed in Pichia pastoris GS115; also called single-chain VEGF-A
Broadly, the EC50 (read off the curve) is the concentration that produces a half-maximal response. Read a low EC50 (read off the curve) as higher potency in that assay. Consider B2, for which the Kd in [5] was 18 nM; in [7], 1.5 nM; in assay [8], 10 nM. In addition, the “EC50 (read off the curve)” value in assay [6] was about 10 nM.
Take B3: the “EC50 (read off the curve)” value with scPDGF, yeast-displayed is about 300 nM.

B4: PVGS, soluble, FLAG and hexahistidine tags (designed binder)
chain: DYKDDDDKIAEPAMIAECHPIETLVDILQEYPDEIGYIFKPSCVPLMRCGGCCNNRNVQCRPTEESNITMQIMRIKPHRGQHIGEMSFLQHNKCRCETVAAGGGGSGGGGSGGGGSGGGGSEVVKFMDVYQRSYCKTRTEVFEISRRLIDATNANFLVWPPCVEVQRCSGCCNHEGLECVPTQVQLRPVQVRKIEFVRKKPIFKKATVTLEDHLACECRPKKDHHHHHH
notes: Secreted from S. cerevisiae YVH10 at 20 C and treated with Endo Hf
Turning to B4, the “fold improvement in affinity compared to PV6” value in [9] was 2700 fold; in [11], 78 fold; in assay [13], 14 fold. Also, the “fold improvement in binding affinity compared to PV6” value in [10] was 130 fold. Besides, the equilibrium dissociation constant (Kd) in [5] was found to be 0.77 nM; in assay [12], 0.014 nM; in assay [2] it was 0.0067 nM; in assay [8], 0.45 nM. Moreover, the figures for the “EC50 (read off the curve)” value in assay [6] and in assay [18] were about 0.8 nM and about 0.5 nM, respectively. Moreover, the koff in [14] is 9.6e-06 s⁻¹; in assay [15] it was 0.00013 s⁻¹. In addition, the kon is 680000 M⁻¹ s⁻¹ in [16] and 2e+07 M⁻¹ s⁻¹ in assay [17]. For the same molecule, the “IC50 of inhibition of HUVEC proliferation induced by 0.5 nM VEGF165, alamarBlue” value in assay [19] amounted to 1.2 nM. Besides, in [4], the “IC50 of inhibition of stimulation by 0.5 nM PDGF-BB, PathHunter PDGFRβ reporter cells” value amounted to 1.1 nM.
